Laboratory results: patent US12385058B2, “Herbicide tolerance protein, encoding gene thereof and use thereof” (Beijing Dabeinong Biotechnology Co., Ltd., priority 2018, dated 2025)

Assays:
[1] = assay type: biochemical; details: for specific enzyme activity, bensulfuron-methyl / specific enzyme activity, chlorimuron-ethyl / specific enzyme activity, metsulfuron-methyl / specific enzyme activity, thifensulfuron-methyl / specific enzyme activity, tribenuron-methyl: 0.2 μg enzyme, 0.2 mM substrate, pH 7.0, 30° C., 20 min
Protocol: (§1) Each reaction was timed beginning with the addition of reactive enzyme, and was terminated with 1 mL of dichloromethane. The organic phase after delamination was dehydrated with anhydrous sodium sulfate.
(§2) The above dehydrated reaction solution was blown dry with nitrogen and filtered by adding 1 mL of methanol, and 20 μL of the filtrate was subjected to liquid chromatography-mass spectrometry (LC-MS). High performance liquid chromatography (HPLC) conditions were as follows: mobile phase being methanol:water (80:20, V/V), Zorbax XDB-C18 chromatographic column (3.5 μm, 2.1×50 mm, Agilent, USA), column temperature being room temperature, UV detector, with a detection wavelength of 255 nm, a sample injection volume of 20 μL, and a flow rate of 0.25 mL/min. The primary ion mass spectrometry conditions were as follows: ion detection mode being multi-reactive ion detection; ion polarity being negative ion; ionization mode being electrospray ionization; a capillary voltage of 4000 volts; a dry gas temperature of 330° C., a flow rate of 10 L/min, an atomizing gas pressure of 35 psi, a collision voltage of 135 volts; and a mass scan range of 300-500 m/z. The secondary ion mass spectrometry conditions were as follows: a collision voltage of 90 volts; a mass scanning range of 30-400 m/z, and other conditions being the same as those of the primary ion mass spectrometry. It was identified by LC-MS that the metabolite of thifensulfuron-methyl was thiophene sulfonic acid, and the metabolite of metsulfuron-methyl, chlorimuron-ethyl, bensulfuron-methyl, sulfometuron-methyl or tribenuron-methyl was its corresponding sulfonic acid. The amount of the generated thiophene sulfonic acid (metabolite) was detected using high performance liquid chromatography (HPLC).

[2] = Degradation of sulfometuron-methyl by purified herbicide tolerant proteins (enzymatic activity, HPLC); assay type: biochemical; details: 0.2 μg enzyme, 0.2 mM substrate, pH 7.0, 30° C., 20 min
Protocol: as §1, §2

| Molecule | efficiency of degrading bensulfuron-methyl, fold of ALT02 [1] | efficiency of degrading thifensulfuron-methyl, fold of ALT02 [1] | specific enzyme activity, bensulfuron-methyl [1] | specific enzyme activity, chlorimuron-ethyl [1] | specific enzyme activity, metsulfuron-methyl [1] | specific enzyme activity, thifensulfuron-methyl [1] | specific enzyme activity, tribenuron-methyl [1] | specific enzyme activity, sulfometuron-methyl [2] | efficiency of degrading chlorimuron-ethyl, fold of ALT02 [1] | efficiency of degrading metsulfuron-methyl, fold of ALT02 [1] | efficiency of degrading bensulfuron-methyl, fold of ALT01 [1] | efficiency of degrading thifensulfuron-methyl, fold of ALT01 [1] | efficiency of degrading chlorimuron-ethyl, fold of ALT01 [1] | efficiency of degrading metsulfuron-methyl, fold of ALT01 [1] |
| --- | --- | --- | --- | --- | --- | --- | --- | --- | --- | --- | --- | --- | --- | --- |
| ALT02M1: herbicide tolerant protein, SEQ ID NO: 23; ALT02 with glycine to alanine at position 140 (protein, the amino acid sequence of ALT02M1) METDNVELAQSKRKVVLAEQGSFYIGGRTVTGPGKFDPSKPVIPYSNEGATFYINQMYVNFQAPVRPRGLPLVFWHGGGLTGHIWESTPDGRPGFQTLFVQDRHTVYTIDQPGRGRGNIPTFNGPFGQLEEESIVNTVTANSSKEGAWVRDRLGPAPGQFFENSQFPRGYEDNYFKEMGFSPSISSDEIVDAVVKLVTHIGPCVLVTHSASGVLGMRVATHAKNVRGIVAYEPATSIFPKGKVPEIPPLADKKSQIFPPFEIQESYFKKLAKIPIQFVFGDNIPKNPKSAYWFLDWWRVTRYAHSLSLEAINKLGGQASLLDLPTAGLRGNTHFPFTDRNNVQVASLLSDFLGKHGLDQNESKLAAALE | 2.3 fold | 3.3 fold | 4.1 µmol/min/mg | 10.9 µmol/min/mg | 2.3 µmol/min/mg | 94.4 µmol/min/mg | 3.3 µmol/min/mg | 5.7 µmol/min/mg | – | – | – | – | – | – |
| ALT02M3: herbicide tolerant protein, SEQ ID NO: 31; ALT02 mutated at positions 44, 45, 140, 142 and 146 (protein, the amino acid sequence of the ALT02M3) METDNVELAQSKRKVVLAEQGSFYIGGRTVTGPGKFDPSKPVIRASNEGATFYINQMYVNFQAPVRPRGLPLVFWHGGGLTGHIWESTPDGRPGFQTLFVQDRHTVYTIDQPGRGRGNIPTFNGPFGQLEEESIVNTVTANVSKERAWVRDRLGPAPGQFFENSQFPRGYEDNYFKEMGFSPSISSDEIVDAVVKLVTHIGPCVLVTHSASGVLGMRVATHAKNVRGIVAYEPATSIFPKGKVPEIPPLADKKSQIFPPFEIQESYFKKLAKIPIQFVFGDNIPKNPKSAYWFLDWWRVTRYAHSLSLEAINKLGGQASLLDLPTAGLRGNTHFPFTDRNNVQVASLLSDFLGKHGLDQNESKLAAALE | – | – | 0.7 µmol/min/mg | 40.3 µmol/min/mg | 4.4 µmol/min/mg | 18.7 µmol/min/mg | 3.5 µmol/min/mg | 1.2 µmol/min/mg | 14.2 fold | 2.1 fold | – | – | – | – |
| ALT02M2: herbicide tolerant protein, SEQ ID NO: 27; ALT02 with serine to valine at position 142 (protein, the amino acid sequence of the ALT02M2) METDNVELAQSKRKVVLAEQGSFYIGGRTVTGPGKFDPSKPVIPYSNEGATFYINQMYVNFQAPVRPRGLPLVFWHGGGLTGHIWESTPDGRPGFQTLFVQDRHTVYTIDQPGRGRGNIPTFNGPFGQLEEESIVNTVTGNVSKEGAWVRDRLGPAPGQFFENSQFPRGYEDNYFKEMGFSPSISSDEIVDAVVKLVTHIGPCVLVTHSASGVLGMRVATHAKNVRGIVAYEPATSIFPKGKVPEIPPLADKKSQIFPPFEIQESYFKKLAKIPIQFVFGDNIPKNPKSAYWFLDWWRVTRYAHSLSLEAINKLGGQASLLDLPTAGLRGNTHFPFTDRNNVQVASLLSDFLGKHGLDQNESKLAAALE | 1.4 fold | 3.9 fold | 2.5 µmol/min/mg | 9.5 µmol/min/mg | 1.3 µmol/min/mg | 111.3 µmol/min/mg | 11.3 µmol/min/mg | 3.7 µmol/min/mg | – | – | – | – | – | – |
| ALT01M1: herbicide tolerant protein, SEQ ID NO: 7; ALT01 with glycine to alanine at position 176 (protein, the amino acid sequence of the herbicide tolerant protein ALT01M1) METDKKTGTSRRSFVKAAGTGAIGIATLPLSTATAFAETDNVELAQSKRKVVLAEQGSFYIGGRTVTGPGKFDPSKPVIPYSNEGATFYINQMYVNFQAPVRPRGLPLVFWHGGGLTGHIWESTPDGRPGFQTLFVQDRHTVYTIDQPGRGRGNIPTFNGPFGQLEEESIVNTVTANSSKEGAWVRDRLGPAPGQFFENSQFPRGYEDNYFKEMGFSPSISSDEIVDAVVKLVTHIGPCVLVTHSASGVLGMRVATHAKNVRGIVAYEPATSIFPKGKVPEIPPLADKKSQIFPPFEIQESYFKKLAKIPIQFVFGDNIPKNPKSAYWFLDWWRVTRYAHSLSLEAINKLGGQASLLDLPTAGLRGNTHFPFTDRNNVQVASLLSDFLGKHGLDQNES | – | – | 3.9 µmol/min/mg | 10.4 µmol/min/mg | 2.2 µmol/min/mg | 89.9 µmol/min/mg | 3.1 µmol/min/mg | 5.4 µmol/min/mg | – | – | 2.3 fold | 3.3 fold | – | – |
| ALT01M3: herbicide tolerant protein, SEQ ID NO: 15; ALT01 mutated at positions 80, 81, 176, 178 and 182 (protein, the amino acid sequence of the herbicide tolerant protein ALT01M3) METDKKTGTSRRSFVKAAGTGAIGIATLPLSTATAFAETDNVELAQSKRKVVLAEQGSFYIGGRTVTGPGKFDPSKPVIRASNEGATFYINQMYVNFQAPVRPRGLPLVFWHGGGLTGHIWESTPDGRPGFQTLFVQDRHTVYTIDQPGRGRGNIPTFNGPFGQLEEESIVNTVTANVSKERAWVRDRLGPAPGQFFENSQFPRGYEDNYFKEMGFSPSISSDEIVDAVVKLVTHIGPCVLVTHSASGVLGMRVATHAKNVRGIVAYEPATSIFPKGKVPEIPPLADKKSQIFPPFEIQESYFKKLAKIPIQFVFGDNIPKNPKSAYWFLDWWRVTRYAHSLSLEAINKLGGQASLLDLPTAGLRGNTHFPFTDRNNVQVASLLSDFLGKHGLDQNES | – | – | 0.68 µmol/min/mg | 38.4 µmol/min/mg | 4.2 µmol/min/mg | 17.8 µmol/min/mg | 3.3 µmol/min/mg | 1.1 µmol/min/mg | – | – | – | – | 14.2 fold | 2.1 fold |
| ALT01M2: herbicide tolerant protein, SEQ ID NO: 11; ALT01 with serine to valine at position 178 (protein, the amino acid sequence of the herbicide tolerant protein ALT01M2) METDKKTGTSRRSFVKAAGTGAIGIATLPLSTATAFAETDNVELAQSKRKVVLAEQGSFYIGGRTVTGPGKFDPSKPVIPYSNEGATFYINQMYVNFQAPVRPRGLPLVFWHGGGLTGHIWESTPDGRPGFQTLFVQDRHTVYTIDQPGRGRGNIPTFNGPFGQLEEESIVNTVTGNVSKEGAWVRDRLGPAPGQFFENSQFPRGYEDNYFKEMGFSPSISSDEIVDAVVKLVTHIGPCVLVTHSASGVLGMRVATHAKNVRGIVAYEPATSIFPKGKVPEIPPLADKKSQIFPPFEIQESYFKKLAKIPIQFVFGDNIPKNPKSAYWFLDWWRVTRYAHSLSLEAINKLGGQASLLDLPTAGLRGNTHFPFTDRNNVQVASLLSDFLGKHGLDQNES | – | – | 2.4 µmol/min/mg | 9.0 µmol/min/mg | 1.2 µmol/min/mg | 106.0 µmol/min/mg | 10.8 µmol/min/mg | 3.5 µmol/min/mg | – | – | 1.4 fold | 3.9 fold | – | – |
